Ends that are not written are not given here.
What was measured:
CTGF [1] = biological target: T1, CTGF (Homo sapiens, UniProt P29279); assay: Affinity between DGC/DAG and CTGF protein by SPR (BIAcore); type: binding; parameters: purchased Abcam ab283457; details: ratio of SPR KD values
T1 sequence (P29279 27-349): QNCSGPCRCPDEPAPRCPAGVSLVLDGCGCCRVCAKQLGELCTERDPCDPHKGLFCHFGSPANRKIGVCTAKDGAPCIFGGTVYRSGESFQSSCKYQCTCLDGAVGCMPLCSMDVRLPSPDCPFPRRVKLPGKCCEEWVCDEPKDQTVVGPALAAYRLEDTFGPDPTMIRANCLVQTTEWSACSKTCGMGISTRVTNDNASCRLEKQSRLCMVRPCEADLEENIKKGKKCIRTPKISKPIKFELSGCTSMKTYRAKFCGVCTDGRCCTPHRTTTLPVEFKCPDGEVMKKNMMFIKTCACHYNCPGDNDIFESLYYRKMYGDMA
Protocol: Real-time binding and kinetic analyses by surface plasmon resonance (SPR) were performed on a BIAcore 8 K^+ instrument (Pharmacia Biosensor AB). The recombinant Human CTGF protein (Abcam, Cat#ab283457) was immobilized on a CM5 chip by using an amine coupling kit, and the remaining coupling sites were blocked with ethanolamine. The eluent contained PBS and 0.005% Tween 20. Binding was evaluated over a range of DAG (0.5–16 μM) or DGC (0.01– 0.16 μM) concentrations at 25 °C. Kinetic parameters were further determined with Biacore Insight Evaluation 3.0 software.

CTGF [2] = biological target: T1, CTGF; assay: ICP-MS of Au content in DGC-labelled human brain sections; parameters: The brain tissue samples of autopsy-confirmed AD patients were obtained from the Chinese Brain Bank Center; from tissue; host or cells: postmortem human brain sections (hippocampus, cortex) of AD patients and healthy controls; ICP-MS (Au content): unit not given here
Protocol: The brain tissue samples of autopsy-confirmed AD patients were obtained from the Chinese Brain Bank Center (CBBC) and Human Brain Bank, Central South University Xiangya School of Medicine. First, the brain sections were air-dried for 15 min at room temperature, followed by immersion in water. 5% H2O2 was applied for 15 min at room temperature. The sections were washed three times with PBS for 5 min each time. Then, tissue repair was performed using trypsin at a temperature of 37 °C for 5 min and washed three times with PBS. We chose 10% sheep serum to block for a duration of 20 min at 37°. Primary antibodies (CTGF antibody and Aβ antibody) were added to the sections overnight at 4 °C. FITC-labeled Goat Anti-Rabbit IgG (H + L) (1: dilution 1:200, Bioss, Cat#bs-0370R-FITC) was applied and incubated at 37 °C for 20 min in darkness. Subsequent washing steps involved rinsing the sections three times with PBS, each time lasting for 5 min while avoiding exposure to light. DAPI staining was performed, taking care to store the samples away from light during the 5-min procedure. Then observed by the CLSM system. Then, we chose the optimal incubation concentration of DGC (200 μM) was used to determine the conditions using DAB Horseradish Peroxidase Color Development Kit. After the brain sections were co-stained by DGC (200 μM) at 4 °C overnight, a DAB chromogenic agent was added to the brain tissue sections to explore whether DGC can catalyze DAB solutions to produce insoluble brown precipitate to attach the brain tissue sections with an optical microscope. Finally, the brain tissue sections were digested with aqua regia to measure the Au content by the ICP-MS system.

“DGC: CTGF-targeting peptide-coated gold nanocluster: one Au26 gold nanocluster coated by eight DAG cyclic peptides, NIR-II and red fluorescence (CDAGRKQKC; also: cyclic peptide, ring not given here, eight peptides on one Au26 nanocluster via Cys Au-S bonds)” was tested, and the “binding affinity of DGC to CTGF relative to free DAG peptide” value (CTGF [1]) was “more than 1000 times”, the “ICP-MS (Au content)” value (CTGF [2]; AD 1, Cortex section stained with DGC) was 16.9799 and the “ICP-MS (Au content)” value (CTGF [2]; AD 1, Hippocampus section stained with DGC) was 24.3713. For the same substance, the “ICP-MS (Au content)” value (CTGF [2]; AD 2, Cortex section stained with DGC) was 28.448, the “ICP-MS (Au content)” value (CTGF [2]; AD 2, Hippocampus section stained with DGC) was 30.5308 and the “Au Content (DGC) per cm^2 by ICP-MS” value (CTGF [2]; Case 1 (healthy control, Thal 0) brain section, section 1) was 0.1533. For the same substance, the “Au Content (DGC) per cm^2 by ICP-MS” value (CTGF [2]; Case 1 (healthy control, Thal 0) brain section, section 2) was 0.3279, the “Au Content (DGC) per cm^2 by ICP-MS” value (CTGF [2]; Case 1 (healthy control, Thal 0) brain section, section 3) was 0.1558 and the “Au Content (DGC) per cm^2 by ICP-MS” value (CTGF [2]; Case 2 (healthy control, Thal 0) brain section, section 1) was 0.09047. The “Au Content (DGC) per cm^2 by ICP-MS” value (CTGF [2]; Case 2 (healthy control, Thal 0) brain section, section 2) was 0.265, the “Au Content (DGC) per cm^2 by ICP-MS” value (CTGF [2]; Case 2 (healthy control, Thal 0) brain section, section 3) was 0.06474 and the “Au Content (DGC) per cm^2 by ICP-MS” value (CTGF [2]; Case 3 (AD, Thal 1) brain section, section 1) was 0.6218. For the same substance, the “Au Content (DGC) per cm^2 by ICP-MS” value (CTGF [2]; Case 3 (AD, Thal 1) brain section, section 2) was 0.4537, the “Au Content (DGC) per cm^2 by ICP-MS” value (CTGF [2]; Case 3 (AD, Thal 1) brain section, section 3) was 0.399 and the “Au Content (DGC) per cm^2 by ICP-MS” value (CTGF [2]; Case 4 (AD, Thal 1) brain section, section 1) was 0.5318. The “Au Content (DGC) per cm^2 by ICP-MS” value (CTGF [2]; Case 4 (AD, Thal 1) brain section, section 2) was 0.7576, the “Au Content (DGC) per cm^2 by ICP-MS” value (CTGF [2]; Case 4 (AD, Thal 1) brain section, section 3) was 0.7155 and the “ICP-MS (Au content)” value (CTGF [2]; HC 1, Cortex section stained with DGC) was 3.7846. The “ICP-MS (Au content)” value (CTGF [2]; HC 1, Hippocampus section stained with DGC) was 2.83, the “ICP-MS (Au content)” value (CTGF [2]; HC 2, Cortex section stained with DGC) was 3.7846 and the “ICP-MS (Au content)” value (CTGF [2]; HC 2, Hippocampus section stained with DGC) was 11.6586.
